The test system of one test is patient MM cells. The test is described as follows: calcein-AM release ADCC assay, autologous patient MM cells with PBMC effector cells. Format: cell-based, human. The protocol:
(§1) ADCC was measured by calcein-AM release assay, with sensitivity similar to traditional Cr^51 assay, as described previously. After informed consent, peripheral blood mononuclear cells (PBMCs) including natural killer (NK) effector cells were isolated from leukopheresis products of normal donors or peripheral blood from MM patients. Increasing concentrations (0-10 μg/ml) of either HuLuc63 or human isotype control IgG1 MSL109 mAbs were added at effector:target (E:T) ratios of 20:1, in a final volume of 200 μl per well. In some experiments, PBMC effector cells were pretreated with lenalidomide for 3 days at 0.2 μM before HuLuc63-mediated ADCC assays were performed. After 4 h incubation, 100 μl culture supernatants were transferred to a Black ViewPlate™-96 plate and arbitrary fluorescent units (AFU) were read on a fluorometer (Wallac VICTOR2). This assay is valid only if (AFU mean maximum release−medium control release)/(AFU mean spontaneous release−medium control release)>7. Calculation of % specific lysis from triplicate experiments was done using the following equation: […]
HuLuc63-mediated lysis of patient MM cells by effector cells from the same patient was measured using an ADCC assay.
HuLuc63-mediated lysis of patient myeloma cells by PBMC effector cells from the same patient was measured using an ADCC assay. CD138-purified tumor cells from a patient with MM were incubated with autologous effector cells in the presence of serial dilutions of HuLuc63 (solid symbols) or isotype control IgG1 (open symbols). PBMC effector cells were pre-incubated for 3 days in the presence or absence of with lenalidomide […] (square symbols) or vehicle control (round symbols), followed by HuLuc63-mediated ADCC. […] Similarly, pretreatment of effector cells with lenalidomide enhanced HuLuc63-induced lysis of myeloma cell lines (FIGS. 3A and 3B).

For the next test, the system named is myeloma cell lines. The test is described as follows: calcein-AM release ADCC assay, myeloma cell lines, effector cells pretreated with lenalidomide. Format: cell-based, human. The protocol: as §1
HuLuc63-mediated lysis of patient myeloma cells by PBMC effector cells from the same patient was measured using an ADCC assay. […]

The next test has as its system OPM2 myeloma cells. The test is described as follows: 51Cr release ADCC assay, OPM2 cells with NK cells from healthy donors. Conditions: bortezomib 10 nM, 18 hrs; NK effector cells from healthy donors. Format: cell-based, human. The protocol:
OPM2 myeloma cells were harvested at mid-log phase, suspended at a density of 1.0×10^6 cells/mL in complete media (RPMI with 10% FBS) and treated overnight with or without Velcade (10 nM). Cells were collected, washed, re-suspended at a density of 20×10^6 viable cells/mL, and labeled for one hour with […] Na2[^51Cr]O4 per 10^6 cells. ^51Cr-Labeled cells were washed then added to a 96-well V-bottomed polystyrene plate at a cell density of 15,000 cells per 75 μL RPMI supplemented with 10% heat-inactivated FBS. HuLuc63 and a human IgG1 isotype control antibody MSL-109 were added to target cells for a final antibody concentration ranging from 0.001 to 10 μg/mL. NK cells were enriched from the whole blood of healthy donors using the RosetteSep human NK cell enrichment cocktail (Stem Cell Technologies). The enriched NK cells were added to Velcade treated or untreated OPM2 cells at a ratio of 10:1. After a 4-hour incubation at 37° C., cells were centrifuged and the supernatants measured for released ^51Cr. Maximum release was determined from target cells lysed with […] Digitonin. Antibody independent cellular cytotoxicity (AICC) was determined using target cells, plus media, plus NK cells, while spontaneous lysis was determined using ^51Cr-labelled cells plus media without NK effectors. % Cytotoxicity was calculated as ((sample−AICC)/(Maximum−AICC)*100. […]

For another test, the system named is CS1. The test is described as follows: CS1 protein expression on OPM2 cell line (flow cytometry). Conditions: OPM2 multiple myeloma cell line. Type of test: cell-based, human. The protocol:
The effect of HuLuc63 and bortezomib treatment on expression of CS1 in MM cell lines and mouse xenograft tumors was examined by flow cytometry and immunohistochemistry respectively.
The combination of HuLuc63 with bortezomib was then tested for anti-myeloma activity in vitro using ADCC assays. […] OPM2 cells were pretreated with vehicle control (square symbols) or bortezomib (10 nM; round symbols) for 18 hrs and were then subjected to HuLuc63 mediated ADCC using human NK cells from healthy donors. HuLuc63 (closed symbols) and isotype control antibody (open symbols) were used at doses ranging from 0.001-10 μg/ml.
(A flow cytometer gives signals particle by particle.)

For test [1], the system named is OPM2 tumor. The test is described as follows: OPM2 xenograft mouse model, second experiment (clinic-like bortezomib schedule). Type of test: in vivo, mice. Conditions: HuLuc63 1 mg/kg ip twice a week, 10 doses; bortezomib 1 mg/kg ip twice weekly weeks 1, 2, 4, 5. The protocol: In a second experiment, HuLuc63 was combined with bortezomib in vivo, using a different dose and dosing schedule for bortezomib, while keeping the original HuLuc63 dose and dosing schedule. OPM2 cells were inoculated into the flanks of SCID mice. When tumors reached an average size of about 100 mm3, animals were randomized into 4 groups of 15 mice each and were treated with 1 mg/kg of antibody administered intraperitoneally twice a week for a total of 10 doses. Bortezomib was administered intraperitoneally at a dose of 1 mg/kg twice for weeks 1 and 2, no treatment for week 3, and 1 mg/kg twice for weeks 4 and 5 for a total of 8 doses. The intent for this dosing schedule was to more closely mimic the dosing schedule of bortezomib in the clinic, where each treatment cycle consists of 2 weeks of dosing, with one week off. Tumor growth was monitored for a period of 1-2 months.

The next test deals with MHC class I. The following applies: bortezomib treatment of myeloma cells; cited from earlier work.
Test [2] concerns OPM2 tumor. The test is described as follows: OPM2 xenograft mouse model, first experiment. The following applies: HuLuc63 1 mg/kg ip twice weekly, 6 doses; bortezomib 0.75 mg/kg ip twice a week. Type of test: in vivo, mice.
Procedure: Six- to eight-week old female IcrTac:ICR-Prkdc^scid mice obtained from Taconic Farms (Germantown, N.Y.) were inoculated with 1×10^7 OPM2 (American Type Culture Collection) cells into the lower right flank. Caliper measurements were performed twice weekly to calculate tumor volume using the following formula: L×W×H/2, where L (length) is the longest side of the tumor in the plane of the animal's back, W (width) is the longest measurement perpendicular to the length and in the same plane and H (height) is taken at the highest point perpendicular to the back of the animal. When tumors reached an average size of about 100 mm^3, animals were randomized into 3 groups of 8-10 mice each and were treated with 1 mg/kg of antibody administered intraperitoneally twice a week for a total of 6 doses. […] Tumor growth was monitored for a period of 1-2 months.
Another test relates to myeloma tumor. The following applies: myeloma mouse tumor model; cited from earlier work.
The subject of another test is myeloma cells. The following applies: cited from earlier work.

On to `Nc1cccc2c1CN(C1CCC(=O)NC1=O)C2=O` (stereo not shown) [lenalidomide, reference compound], for which the “effect of pre-incubation of PBMC effector cells on HuLuc63-mediated ADCC activity, autologous patient sample” value in the test with patient MM cells (lenalidomide (0.2 µM) for 3 days before ADCC) is “significantly increased the ADCC activity”. Besides, the “effect of pretreatment of effector cells on HuLuc63-induced lysis of myeloma cell lines” value with myeloma cell lines is reported as “enhanced”.
For the molecule `CC(C)C[C@H](NC(=O)[C@H](Cc1ccccc1)NC(=O)c1cnccn1)B(O)O` [bortezomib, reference compound], in the test on OPM2 myeloma cells, the “effect of pre-treatment of OPM2 cells on HuLuc63-mediated ADCC” value is on record as “significantly enhanced”. Besides, the “change in CS1 expression pre- or post-treatment” value in the test with CS1 is given as “no significant change”. The anti-tumor activity entry in the test on OPM2 tumor [1] is on record as “significant anti-tumor activity”. Also, in the test on MHC class I, the “cell-surface expression of MHC class I on myeloma cells” value was “down-modulation”.

B1: HuLuc63: humanized recombinant monoclonal IgG1 antibody directed to human CS1; heavy chain variable region SEQ ID NO: 5, light chain variable region SEQ ID NO: 6 (antibody, listed as Homo saiens, listed as Homo sapiens, V domains shown)
VH: EVQLVESGGGLVQPGGSLRLSCAASGFDFSRYWMSWVRQAPGKGLEWIGEINPDSSTINYAPSLKDKFIISRDNAKNSLYLQMNSLRAEDTAVYYCARPDGNYWYFDVWGQGTLVTVSS
VL: DIQMTQSPSSLSASVGDRVTITCKASQDVGIAVAWYQQKPGKVPKLLIYWASTRHTGVPDRFSGSGSGTDFTLTISSLQPEDVATYYCQQYSSYPYTFGQGTKVEIK
As to B1, in the test on patient MM cells (patient MM cells with effector cells from the same patient, 0-10 μg/ml, E:T 20:1), the “autologous myeloma cell lysis (ADCC)” value is given as “induced significant autologous myeloma cell lysis”. For the same molecule, the “autologous tumor cell lysis in patients with MM resistant or refractory to bortezomib and/or 17-AAG” value with patient MM cells (resistant or refractory patient tumor cells, autologous effector cells) is listed as “demonstrated”. The “change in CS1 expression pre- or post-treatment” value with CS1 is reported as “no significant change”. In addition, the anti-tumor activity entry with OPM2 tumor [2] and in the test with OPM2 tumor [1] was “significant anti-tumor activity” in each case. Also, the “reduction of tumor mass” value in the test on myeloma tumor was “more than 50%”. Also, the “lysis of myeloma cells via ADCC” value in the test with myeloma cells is on record as “effectively mediates lysis”.

These data come from patent US8632772B2, “Methods of treating multiple myeloma using combination therapies based on anti-CS1 antibodies” (Dana-Farber Cancer Institute, priority 2006, dated 2014).
